Results on 13 sequences are retold here after the DeepSol protein solubility set.

The nature of this data set: soluble on expression in E. coli; label from the status in PepcDB or PDB records.
With “MGSDKIHHHHHHMIGAWCFLDHAGPVTFPAGNGLDVGPHPHIGLQTFTWMIEGTMMHTDSLGSKQLIRPKQVNLMTAGHGISHTEVAPDTETQMHAAQLWIALPDHKRNMDPKFEHYPDLPVVEKDGLEFTVLVGEYLETTSPVVVHTPLVGVDLIATQDTKTRIPLNPEFEYGFMALDGVAHVNGHELTADNMVVLDTGLNEIEIEVKKGNRVLLIGGEPFETPILLWWNFVARTMDDLKEAREQWVNHDVRFGEIPDYVGARLEAPVLPDQMRASK”, the “soluble on expression in E. coli” value is recorded as “not soluble”.

For “MGSDKIHHHHHHMIHFSINKNLFLQALNTTKRAISSKNAIPILSTVKIDVTNEGITLIGSNGQISIENFISQKNEDAGLLITSLGSILLEASFFINVVSSLPDVTLDFKEIEQNQIVLTSGKSEITLKGKDSEQYPRIQEISASTPLILETKLLKKIINETAFAASTQESRPILTGVHFVLSQHKELKTVATDSHRLSQKKLTLEKNSDDFDVVIPSRSLREFSAVFTDDIETVEIFFANNQILFRSENISFYTRLLEGNYPDTDRLIPTDFNTTITFNVVNLRQSMERARLLSSATQNGTVKLEIKDGVVSAHVHSPEVGKVNEEIDTDQVTGEDLTISFNPTYLIDSLKALNSEKVTISFISAVRPFTLVPADTDEDFMQLITPVRTN”, the “soluble on expression in E. coli” value is listed as “soluble”.

“MGSDKIHHHHHHMIINRSKDSSSNEISFVSKDMGFLLTQSEVSYNFKDKLVEDIAKQVFAENRLSVGTIAKTNVKYTKMFIGVNGYDTIMSAYTEASKKTKKKYMIEANLDKFNVIEKGTVTLSVMFEEGFNIINTTFSESMENVKNKVIVVDQYGSKISEKIDNEIFKEVNVIMQKVIQQQENQDVDIDSEFNGIEKSCSLKGYGDVSCITGRGVKVKDSYTKLVGLFYIDTDKHTWQNGEYQIELELNFQNLMDEKSAGQDEPKEESNLGGEDYAGGKEFTAEFTAYCPRKEEGGDTDCRKKKLDPSKKTCAAPMVGKYEQTYYTKEFLNKHPLLNYGDEIQVITGVSGRDGVYKVNDVGPAITIEKNGTYHIDILFGNVEEASKFGRRKGKIIIGGYSGNVSDKAKIVISEAKKHLGKPYKWGGNGPSSFDCSGLMVYCFKKVNVSLPRTSNQQSKKGKKVEQKNLQAGDLVFFHNPVSHVGLYIGNGEFLHAPQKGDVVKISKLSSRRDFNTARRVL”: the “soluble on expression in E. coli” value is reported as “not soluble”.

On to “MGSDKIHHHHHHMILAAKNSVFVHIRRGDYVGIGCQLGIDYQKKALEYMAKRVPNMELFVFCEDLEFTQNLDLGYPFMDMTTRDKEEEAYWDMLLMQSCQHGIIANSTYSWWAAYLIENPEKIIIGPKHWLFGHENILCKEWVKIESHFEVKSQKYNA”, for which the “soluble on expression in E. coli” value is “not soluble”.

With “MGSDKIHHHHHHMILCAGEALIDMLPRKTEAGEAAFAPYPGGSVFNTAVALSRLGTKTEFFSGLSTDLFGERLDSVLMANGVGSALAHRNDRPTTLAFVTLTDGHASYAFYDENTAGRMLTEADLPAIPETAKACFFGGISLAVEPCADAYAALIGRANDLGRVVMIDPNIRPGFIADEARFRARLDQMLAQTDIIKASDEDLRWLLGDMSLPELAEALRAKGPSVVLVTQGAAGVTGFYAGGEIHVDAEAVTVVDTVGAGDTFNAGVLAGLDDAGALDKAMIAKGLDAETLRGAMELGVRASAVTVTRAGANPPRRDELS”, the “soluble on expression in E. coli” value is reported as “not soluble”.

Take “MGSDKIHHHHHHMILLNKPVAPNLQKLNSYLERVHDTGWYTNFGPLHNELTEKLEEYLGVSNLLLVSNGTLAIQLAAKVFNVKQTITTPFSFVATSSSLLWQGIDLAYSDIERSSLNICPEELEKNWKSNDSYDSLLATHVYGNPCDVQKIDEIAKKYNKKIMYDAAHAFGIKVGNKSVLSFGDASTLSFHATKVFHTVEGGAVIFKDRNHFDEAKSLINFGIQNDGTLGTPGINAKLNEYQAAVGLCLLESIDDIICHRSNLFEIYRKELSNVIELPLWHRDSNYNGAYMPILPSTEVERLKIGEQLKANNIQFRRYFYPSLDKAYLRVKSFNCPVSNYIAENALCLPLHMYMTKEDVLKITATIKEIY”: the “soluble on expression in E. coli” value is reported as “not soluble”.

Regarding “MGSDKIHHHHHHMILLSFDIEEFDVPKEHQVDISMEEQIKVSVEGTTRILDCLERNQVKATFFCTANFALHAPDIIKRIQEGGHEIASHGFYHWTFEVEDLKRSKDQLEEITGTKVYGYRQARMMPVSEKAVYEAGYIYNSSLNPTFIPGRYMRLSTPRTPFIKDRVMQMPASVTPLLRFPLFWLSCHNLPASLYRWLCKYTHRHDGYFVTYFHPWEFYPLNEHPEWKLPFIIRNHAGEGMEKRLDAFILYFRKKNVSFGRFIDYIKLNKDIMK”, the “soluble on expression in E. coli” value was “not soluble”.

As to “MGSDKIHHHHHHMIMKFFDREREINEILGILDETPDNIYFIYGPINSGKTTLMMEIINRLKDDKKYRIFYYNLRGVRISSYSDFFDIMFEIREDNKFKQMVKDADVLVEGIKFIEKTAKLFNESIILPSDLAKVILSKQKGFDVFRYLERVFREMNKKGLKPVIIIDELQRLKGLKSNGELIDDLFNFFVRLTKELHITHCFCLSSDSLFIEYVYDRAELRGRADYILVDDFDKETALKFMDFLSEDILGRKLSEDEKELIYSYVGGKPKDVYDVIIKLKLGKELKDILEFMLKEEIQKLKYFLEDVKEDDEELYNKIVDALKIFKENYEIEDIKIPKNIREFLVKKNILFLNPIEGTLKPQSFLVWNAIKKLLNGH”, the “soluble on expression in E. coli” value was “not soluble”.

With “MGSDKIHHHHHHMIMKVVVKVGSNLLVGSSGLRKSYIAELCREVARLKSQGHEISIITSGARAAGFTYLGKGKRTQDLHIKQALCAVGQVQLMKVYENAFDFYGIKIAQILLTRDTFSNRKRYLNLRNTLIGLSEFDVVPIVNENDTVATEEITLGDNDTLAAMFSIAWDADFLVLFTTVDGVIDENGKLVERFDESVKLKDMGKSSWGTGGIRSKIESALMASRCGVKATICSGNDVSNLTRFVKGEPVGTVFEPQGRLKAKKAWIAFLSEPAGKIYVNKGAEEALKSGNSLLPVGVTGVEGTFDVGDVVEIVNEEGELVGRGIVNYSSSDLEKIAGHKSSDLKKILGYEGNKVVVHIDNMWVA”, the “soluble on expression in E. coli” value is “not soluble”.

As to “MGSDKIHHHHHHMINPIILPLDKVRNPRDLGSYVGYNGRKIKMHRLLRTGKISNITEHDKKFLLDYGLTKIIDLRSPFECKKAPDSQIPGVEHIDLSISTEDNTKGGKKDITKVFETYRKDQYAGFNMMCDRYRSHVMKEHAQHALHSILEVLANTKDGAIIYHCSEGKDRTGIVTVLILYLLGVDMETIRQDYLYSNYMLDNYRASRDKIMQENGENLCFRANMRILGSVSDAFLDTSLIAIHKNFGSLDNYLKEIIGVTPELRDTLRELYLED”, the “soluble on expression in E. coli” value is “not soluble”.

“MGSDKIHHHHHHMINPQWLHTFAVLVEKGNFTRTAEAIGITQAAVSQHISRLEEEYGTLFLRRPRQLEITPIGENLLTYVKDVECAQKRLQQKLIHDDAEVGDISLITPGSIGLTLFPLLIELQQAFPALNIRHRFAPDSEIVASVLANEHEIGMVTLKPSDPRIHSTHFTEEPLELVVPACHKQNEWVDLQRLGFISHPDGEAMATRLLSRKYPSNPGIQDIPCKGFTNQISLILEPVAKGLGFTVIPQYARKAFERQQDIYVVECGSQVVDTIWLIHRAEWPLSRRAQKAITFLKGKI”: the “soluble on expression in E. coli” value was “not soluble”.

On to “MGSDKIHHHHHHMINQINFKTSHGGSREEGYIDFSASVNPYPPEWTDEMFERAKKISTFYPYYEKLEEELSDLIGEPITITAGITEALYLLGVWMRGRKVIIPKHTYGEYERISRMFGGRVIKGPNDPGKLAEFVERNSFVFFCNPNNPDGKFYREKEMKPLLDAIQDTNSILILDEAFIDFVKKPESPEGENIIRLRTFTKSYGLPGVRVGYVIGFVDAFRSVRMPWSIGSTGVAFLEFLLKDNFKHLRKTLPLIWKEKERIEKELKVKSDANFFIMKVREGIIEKLKENGILVRDCKSFGLPGYIRFSVRRREENDKLINILRKTLNT”, for which the “soluble on expression in E. coli” value is on record as “not soluble”.

In the case of “MGSDKIHHHHHHMIPPASTLRSRLKMQHLRLLLSIEERGSLRQAADALSLSQPAVTKMLQDMEALLGVTLFERHLRGLRPTRFGMAVTRYANLVFSDLANLHDELVSLETGRIGKVRIGAVMAPTPVLMAEVIRRLKRDHPGLNMTVHVDTSDMLVPMLERDQLDLVLGRVPEGWDASHLTFEQLGDERLAVVVGCDHPLAKRTDPTFGELATYPWILQPRPSPMRALIDRSFEEAGVTAPQSTIETAAILMTTSLLTGSDLVAVVPMAVATFHASMGLLHILPVPLPRKLDPYGIVTRLGRPPSASMTLFVDVLRAVVEEGGQ”, the “soluble on expression in E. coli” value was “not soluble”.
